Assay [1] deals with T1, PKC-ε (endogenous, human cell extracts) (human, UniProt Q02156 1-737).
T1 construct: Two bands on the blot, said to be alternate splicing variants; also called PKC-epsilon; PKC-ε Band 1
T1 sequence (looked up): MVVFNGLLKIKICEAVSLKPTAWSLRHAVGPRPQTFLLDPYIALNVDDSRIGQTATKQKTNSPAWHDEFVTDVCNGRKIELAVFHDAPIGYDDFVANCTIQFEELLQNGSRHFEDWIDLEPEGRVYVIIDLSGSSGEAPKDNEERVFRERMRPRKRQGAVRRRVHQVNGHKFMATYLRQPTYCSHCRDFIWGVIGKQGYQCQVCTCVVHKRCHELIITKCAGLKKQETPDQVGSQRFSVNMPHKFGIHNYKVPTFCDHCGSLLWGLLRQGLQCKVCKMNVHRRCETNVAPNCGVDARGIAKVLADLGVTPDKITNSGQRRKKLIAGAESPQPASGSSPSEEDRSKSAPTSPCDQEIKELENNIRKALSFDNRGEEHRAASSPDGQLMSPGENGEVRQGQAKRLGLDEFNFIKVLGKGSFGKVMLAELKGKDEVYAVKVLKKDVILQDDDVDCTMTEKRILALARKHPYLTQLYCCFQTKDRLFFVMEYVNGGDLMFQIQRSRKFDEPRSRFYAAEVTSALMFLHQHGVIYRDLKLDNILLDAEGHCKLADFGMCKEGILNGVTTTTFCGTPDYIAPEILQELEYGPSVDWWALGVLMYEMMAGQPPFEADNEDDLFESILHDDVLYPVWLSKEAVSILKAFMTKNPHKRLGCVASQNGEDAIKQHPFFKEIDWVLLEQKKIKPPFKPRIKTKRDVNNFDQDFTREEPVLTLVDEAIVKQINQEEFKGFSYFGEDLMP
Kind of assay: Protocol B blot competition, IMR-32 extract, competitor anti-PKC-ε Ab, Band 2; PRE 100 µg. How it is done:
The ability of the peptides PRE 2 and PRE 3 (see Table 3) to interfere with the binding of a PKC-α-specific polyclonal antibody (Santa Cruz Biotechnology, Inc.) to PKC-α was determined using a modified version of the protocol outlined above in which the test peptide was added directly to the cell extract prior to electrophoresis at a concentration of either 5× or 15× the concentration of the protein applied to each well of the gel for the Western blots (20 μg).
Peptides PRE 2, PRE 3 and PRE 4 (see Table 3) were tested for their ability to interfere with the binding of isoform-specific polyclonal antibodies (Santa Cruz Biotechnology, Inc.) to PKC-ε using the general protocol described in Example 3. Two bands, representing alternate splicing variants of PKC-ε, were identified on the Western blot using this anti-PKC-ε antibody.

The target of assay [2] is T1, PKC-ε (endogenous, human cell extracts). Kind of assay: Western-blot competition on cell extracts against the anti-PKC-ε primary antibody; band densitometry. How it is done:
Binding efficiency and specificity of the peptides PRE 2, 3, 4, 5, 6, 7, 8, 9, 10, 11, 12 and 13 (see Table 3) was also tested using cytoplasmic extracts from different cell lines expressing appropriate PKC isoforms as described for Example 1. Briefly, the protein cytoplasmic extracts were separated by electrophoresis and transferred onto nitrocellulose membranes by standard Western blotting procedures. The bands on the Western blots were detected with matching primary antibodies and alkaline phosphatase conjugated secondary antibody. The bands were then scanned and the relative density measurements obtained.
This procedure to assess the binding characteristics of the PREs is based on competition binding of the PRE with the primary anti-isoform PKC specific antibodies. The lower the measured band density, the greater the binding of the PRE to the PKC isoform. The PREs were added at 10 and 20 times (10×, 20×) the primary antibody concentration, according to classical competition between antigenic peptide and primary antibody. The following cell lines (obtained from the ATCC) were used: H661—NCI human lung carcinoma NSCLC; MDAMB231—human highly invasive breast cancer cell line from pleural effusion; LS180—human colon adenocarcinoma; LnCAP—human prostate adenocarcinoma; CCD16Lu—human lung fibroblasts; Du145—human prostate carcinoma brain metastasis, and T24—human bladder carcinoma.

In another assay the target is T2, PKC-ζ (purified isoform) (Homo sapiens (Human), UniProt Q05513 1-592).
T2 construct: also called PKC-zeta; PKCzeta
T2 sequence: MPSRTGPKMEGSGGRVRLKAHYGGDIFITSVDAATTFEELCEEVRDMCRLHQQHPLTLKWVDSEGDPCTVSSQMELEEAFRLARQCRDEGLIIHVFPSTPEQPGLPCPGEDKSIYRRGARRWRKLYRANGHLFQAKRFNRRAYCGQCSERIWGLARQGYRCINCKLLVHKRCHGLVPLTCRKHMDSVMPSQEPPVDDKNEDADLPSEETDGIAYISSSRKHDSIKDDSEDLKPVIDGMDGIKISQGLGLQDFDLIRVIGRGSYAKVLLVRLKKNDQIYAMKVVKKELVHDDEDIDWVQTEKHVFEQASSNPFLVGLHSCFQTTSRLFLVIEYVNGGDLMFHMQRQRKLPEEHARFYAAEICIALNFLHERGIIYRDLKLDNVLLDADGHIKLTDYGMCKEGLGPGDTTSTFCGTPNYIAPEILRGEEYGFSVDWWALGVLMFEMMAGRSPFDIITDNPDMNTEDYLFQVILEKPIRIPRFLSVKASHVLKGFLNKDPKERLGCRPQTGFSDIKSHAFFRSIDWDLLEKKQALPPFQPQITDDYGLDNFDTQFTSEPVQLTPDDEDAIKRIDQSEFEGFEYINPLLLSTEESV
Description: competitive binding assay on purified isoforms: PRE 4 at 20X against the fluorescent anti-PKC-zeta antibody.

Assay [3] concerns the target T3, PKC-ζ (endogenous, human cell extracts) (human, UniProt Q05513 1-592).
T3 construct: also called PKC-zeta
T3 sequence (looked up): T2 sequence
Description: Western-blot competition on cell extracts against the anti-PKC-ζ primary antibody; band densitometry.

The values that follow come from patent publication US20100041597A1 (published 2010).

B1: PRE 3 (peptide)
peptide: Ac-AKGIQEVKGGDAQNLIGISI-NH2
notes: Synthetic peptide; also called peptide PRE 3
As to B1, in assay [1], the band intensity amounted to 0, the “inhibition (%)” value worked out at 100% and the “relative intensity (%)” value worked out at 0%.

B2: PRE 13 (peptide)
peptide: Ac-RDAQNLI-NH2
notes: Synthetic peptide; also called peptide PRE 13; Ac-RDAQNLI-NH2
B2: in assay [2], the binding result is “no binding (tested: 20X the primary antibody concentration)”.

B3: PRE 4 (peptide)
peptide: Ac-KDAQNLIGISI-NH2
notes: Synthetic peptide; also called peptide PRE 4
Consider B3, for which the binding result in the assay with PKC-ζ (purified isoform) is “no binding (tested: 20X)”. Also, in assay [1], the band intensity was determined as 0, the “inhibition (%)” value stood at 100% and the “relative intensity (%)” value was found to be 0%.

B4: PRE 11 (peptide)
peptide: Ac-RDAQNLIGISI-NH2
notes: Synthetic peptide; also called peptide PRE 11
For B4, in assay [3], the binding result is given as “no binding (tested: 20X the primary antibody concentration)”.
